Our source for the fold increase in Kd against non-phosphorylated GMΔNT values is publication PMC3897551.

The target of the test is tubulin dimers. As to the kind of experiment: MST.
Sequence of tubulin dimers (P68363 whole entry, chain 1 of 2): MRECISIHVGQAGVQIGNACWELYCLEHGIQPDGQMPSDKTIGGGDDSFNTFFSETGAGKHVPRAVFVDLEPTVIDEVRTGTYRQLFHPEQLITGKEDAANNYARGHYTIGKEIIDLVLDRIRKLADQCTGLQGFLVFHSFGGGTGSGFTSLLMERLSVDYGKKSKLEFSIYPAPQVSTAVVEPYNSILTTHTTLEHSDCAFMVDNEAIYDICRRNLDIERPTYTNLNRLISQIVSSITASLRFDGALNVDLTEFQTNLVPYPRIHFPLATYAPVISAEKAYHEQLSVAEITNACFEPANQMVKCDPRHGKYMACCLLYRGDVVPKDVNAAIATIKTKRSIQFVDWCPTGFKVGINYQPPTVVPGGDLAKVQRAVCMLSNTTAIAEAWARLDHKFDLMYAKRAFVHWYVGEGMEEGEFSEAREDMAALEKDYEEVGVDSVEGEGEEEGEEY
Sequence of tubulin dimers (A8K068 whole entry, chain 2 of 2, further chain): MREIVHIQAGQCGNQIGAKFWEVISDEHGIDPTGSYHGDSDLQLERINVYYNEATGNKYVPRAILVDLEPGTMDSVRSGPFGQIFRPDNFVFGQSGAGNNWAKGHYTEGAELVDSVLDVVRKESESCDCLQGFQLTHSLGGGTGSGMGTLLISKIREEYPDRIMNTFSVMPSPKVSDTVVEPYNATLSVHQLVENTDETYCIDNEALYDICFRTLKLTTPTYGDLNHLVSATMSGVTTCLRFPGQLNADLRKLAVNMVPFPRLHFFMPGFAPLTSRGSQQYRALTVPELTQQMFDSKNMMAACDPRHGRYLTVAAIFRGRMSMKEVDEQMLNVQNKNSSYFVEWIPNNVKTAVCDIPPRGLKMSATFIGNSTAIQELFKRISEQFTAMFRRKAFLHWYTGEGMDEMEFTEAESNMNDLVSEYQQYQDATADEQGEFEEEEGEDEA

B1: GMΔNT phosphorylated by Aurora B/INCENP, Q91636 187-730 (domain or fragment)
chain: GRNNQGRRKSNIVKEMEKMKNKREEQRAQNYERRMKRAQDYDTSVPNWEFGKMIKEFRATMDCHRISMADPAEEHRICVCVRKRPLNKQELSKKEIDIISVPSKNIVLVHEPKLKVDLTKYLENQAFRFDFSFDETATNEVVYRFTARPLVQSIFEGGKATCFAYGQTGSGKTHTMGGDFSGKSQNVSKGVYAFASRDVFLLLDQPRYKHLDLDVFVTFFEIYNGKVFDLLNKKTKLRVLEDAKQEVQVVGLLEKQVISADDVFKMIEIGSACRTSGQTFANTSSSRSHACLQIILRRGSKLHGKFSLVDLAGNERGVDTASADRITRMEGAEINRSLLALKECIRALGQNKSHTPFRESKLTQILRDSFIGENSRTCMIAMLSPGFNSCEYTLNTLRYADRVKELSPQNAETNDDNLQMEDSGGSHASIEGLQLQDDFLLKDEELSTHNSFQDALNRVGELEDKAVDELRELVQKEPEWTNLLQMTEQPDYDLENFVMQAEYLIQERSKVLIALGDSINSLRLALQVEEQASKQISKKKRSNK
modifications: here or on the partner: phosphorylated by Aurora B/INCENP (S196 is retained in this region)
Take B1: the fold increase in Kd against non-phosphorylated GMΔNT stood at 16 fold.
